We go through 4 molecules from publication PMC6785124, “Allosteric regulation of a prokaryotic small Ras-like GTPase contributes to cell polarity oscillations in bacterial motility” (PLoS Biology, 2019).

Experiment [1] addresses Myxococcus xanthus Mutual gliding motility A, MxMglA(His6) (Myxococcus xanthus) (UniProt Q1DB04). Kind of experiment: fluorescence polarisation; fluorescence anisotropy of 400 nM mant-GppNHp (m-GNP) mixed with 2 μM MxMglA or its mutant, titrated with MxMglB or MxMglB^ΔCt (concentration as MglB dimer); one site-specific binding fit. (Fluorescence polarisation rises when a labelled molecule tumbles more slowly, as on binding a larger partner.)

For experiment [2], the target named is T1, Myxococcus xanthus Mutual gliding motility A, MxMglA(His6) (Myxococcus xanthus, UniProt Q1DB04 1-195).
T1 construct: MglA, small Ras-like GTPase of Myxococcus xanthus; gene mglA amplified from genomic DNA (DSMZ 16526) and cloned into pHis17 between NdeI and BamHI; In the assays it carried m-GDP, m-GNP (mant-GppNHp) or GTPγS; source: E. coli BL21-DE3, purified (HisTrap, Superdex75); not shown: His6, C-terminal, kept
T1 sequence: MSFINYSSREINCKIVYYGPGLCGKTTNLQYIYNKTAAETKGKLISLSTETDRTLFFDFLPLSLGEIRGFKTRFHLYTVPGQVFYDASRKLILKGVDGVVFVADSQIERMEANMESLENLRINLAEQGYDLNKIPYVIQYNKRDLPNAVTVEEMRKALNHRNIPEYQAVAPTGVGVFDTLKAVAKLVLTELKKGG
Put plainly: fluorescence polarisation; fluorescence anisotropy of 400 nM mant-GDP (m-GDP) mixed with 2 μM MxMglA or its mutant, titrated with MxMglB or MxMglB^ΔCt (concentration as MglB dimer); one site-specific binding fit. The following applies: both partners purified.

Experiment [3] deals with T2, MxMglA^L, MxMglA L64A and I67A double mutant (Myxococcus xanthus, UniProt Q1DB04 1-195, L64A | I67A).
T2 construct: MglA of Myxococcus xanthus with L64A and I67A (β2-β3 loop, interswitch region); Mutant of m1; source: E. coli BL21-DE3, purified (protocol similar to MxMglA(His6))
T2 sequence: T1 sequence with L64A, I67A
Put plainly: fluorescence polarisation; fluorescence anisotropy of 400 nM mant-GppNHp (m-GNP) mixed with 2 μM MxMglA or its mutant, titrated with MxMglB or MxMglB^ΔCt (concentration as MglB dimer); one site-specific binding fit. The following applies: both partners purified.

Experiment [4] has as its target T1, Myxococcus xanthus Mutual gliding …. The description is as above. The following applies: both partners purified.
Experiment [5] has as its target T3, MxMglA^Q82L, active site mutant of MxMglA (Myxococcus xanthus, UniProt Q1DB04 1-195, Q82L).
T3 construct: MglA of Myxococcus xanthus with Q82L (active site); Mutant of m1; source: E. coli BL21-DE3, purified (protocol similar to MxMglA(His6))
T3 sequence: T1 sequence with Q82L
Described as above. The following applies: both partners purified.

The target in experiment [6] is T4, MxMglA^K, MxMglA K181A and K185A double mutant (Myxococcus xanthus, UniProt Q1DB04 1-195, K181A | K185A).
T4 construct: Mutant of m1; source: E. coli BL21-DE3, purified (protocol similar to MxMglA(His6))
T4 sequence: T1 sequence with K181A, K185A
The experiment is described as above. The following applies: both partners purified.

For experiment [7], the target named is T5, Myxococcus xanthus Mutual gliding motility B, full-length MxMglB(His6) (Myxococcus xanthus), Q1DB03.
T5 chain: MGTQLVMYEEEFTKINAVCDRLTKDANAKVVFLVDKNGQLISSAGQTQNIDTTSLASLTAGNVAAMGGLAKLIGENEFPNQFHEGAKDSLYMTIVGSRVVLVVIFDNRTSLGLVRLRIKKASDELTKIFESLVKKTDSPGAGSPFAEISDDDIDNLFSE
Put plainly: crystal structure; MxMglA and MxMglB mixed 1:1 (MglB as monomer), 4 mg/ml each, in A50 buffer with 5 mM MgCl2 and 2 mM GTPγS; PEG 4000 or PEG 3350 with 200 mM ammonium sulphate. As to conditions: remark: other sources report otherwise.

Experiment [8] addresses T1, Myxococcus xanthus Mutual gliding …. The description is as above. As to conditions: both partners purified.

Numbering of substitutions follows the chain as printed.

In the case of “MxMglB^ΔCt(His6), truncated MxMglB lacking the C-terminal helix (domain or fragment)”, the Kd (in general, the equilibrium constant for the complex coming apart) in experiment [1] was 290 nM.

B1: Myxococcus xanthus Mutual gliding motility B, full-length MxMglB(His6) (natural protein, UniProt Q1DB03 1-159, looked up)
chain: T5 chain
notes: Rbl/LC7 core residues 10-131, Ct-helix residues 147-157; also called MglB1 and MglB2 (the two protomers in the crystal); source: E. coli BL21-AI, purified (HisTrap, Superdex75); not shown: His6, C-terminal, kept
With B1, the dissociation constant (Kd) in experiment [2] was 120 ± 30 nM; in experiment [4], 100 ± 40 nM. Moreover, the binding result in experiment [3], in experiment [5] and in experiment [6] was “binds” each time. Besides, the stoichiometry N – broadly, the number of molecules, sites or subunits per partner or assembly – in experiment [7] came to 2.

B2: selenomethionine-labeled MxMglB^I148M (natural protein, Myxococcus xanthus)
chain: T5 chain with I148M
modifications: selenomethionine-labeled
notes: MglB of Myxococcus xanthus with Ile148 mutated to methionine; construct without histidine tag; Made to confirm the registry of the Ct-helix; Probably a point mutant of full-length MglB
B2: in experiment [8], the binding result is “binds”.

B3: selenomethionine-labeled MxMglB^L156M (natural protein, Myxococcus xanthus)
chain: T5 chain with L156M
modifications: selenomethionine-labeled
notes: MglB of Myxococcus xanthus with Leu156 mutated to methionine; construct without histidine tag; Made to confirm the registry of the Ct-helix; Probably a point mutant of full-length MglB
For the molecule B3, in experiment [8], the binding result was “binds”.
